US20210155691A1, “METHODS OF PREVENTING OR TREATING NON-HEMATOPOIETIC SLAMF7 POSITIVE AND SLAMF7 NEGATIVE CANCERS” (ADAERATA, LIMITED PARTNERSHIP, priority 2018, published 2021)

Assays:
thymocytes = assay: Induction of apoptosis in thymocytes (annexin V); type: cell-based, mouse; conditions: 1 μM; 10 hours at 37° C.; thymocytes from C57BL/6 mice; data not shown
[1] = target: T1, mouse CD11b (integrin alphaM, alpha subunit of Mac-1) (mouse, UniProt P05555 17-1153); assay: anti-CD11b immunoprecipitation from BMDM lysates, mass spectrometry
T1 construct: whole, on cells; Endogenous protein in macrophage lysates; It forms Mac-1 together with CD18; also called Mac-1 (CD11b); CR3 alpha subunit
T1 sequence (P05555 17-1153): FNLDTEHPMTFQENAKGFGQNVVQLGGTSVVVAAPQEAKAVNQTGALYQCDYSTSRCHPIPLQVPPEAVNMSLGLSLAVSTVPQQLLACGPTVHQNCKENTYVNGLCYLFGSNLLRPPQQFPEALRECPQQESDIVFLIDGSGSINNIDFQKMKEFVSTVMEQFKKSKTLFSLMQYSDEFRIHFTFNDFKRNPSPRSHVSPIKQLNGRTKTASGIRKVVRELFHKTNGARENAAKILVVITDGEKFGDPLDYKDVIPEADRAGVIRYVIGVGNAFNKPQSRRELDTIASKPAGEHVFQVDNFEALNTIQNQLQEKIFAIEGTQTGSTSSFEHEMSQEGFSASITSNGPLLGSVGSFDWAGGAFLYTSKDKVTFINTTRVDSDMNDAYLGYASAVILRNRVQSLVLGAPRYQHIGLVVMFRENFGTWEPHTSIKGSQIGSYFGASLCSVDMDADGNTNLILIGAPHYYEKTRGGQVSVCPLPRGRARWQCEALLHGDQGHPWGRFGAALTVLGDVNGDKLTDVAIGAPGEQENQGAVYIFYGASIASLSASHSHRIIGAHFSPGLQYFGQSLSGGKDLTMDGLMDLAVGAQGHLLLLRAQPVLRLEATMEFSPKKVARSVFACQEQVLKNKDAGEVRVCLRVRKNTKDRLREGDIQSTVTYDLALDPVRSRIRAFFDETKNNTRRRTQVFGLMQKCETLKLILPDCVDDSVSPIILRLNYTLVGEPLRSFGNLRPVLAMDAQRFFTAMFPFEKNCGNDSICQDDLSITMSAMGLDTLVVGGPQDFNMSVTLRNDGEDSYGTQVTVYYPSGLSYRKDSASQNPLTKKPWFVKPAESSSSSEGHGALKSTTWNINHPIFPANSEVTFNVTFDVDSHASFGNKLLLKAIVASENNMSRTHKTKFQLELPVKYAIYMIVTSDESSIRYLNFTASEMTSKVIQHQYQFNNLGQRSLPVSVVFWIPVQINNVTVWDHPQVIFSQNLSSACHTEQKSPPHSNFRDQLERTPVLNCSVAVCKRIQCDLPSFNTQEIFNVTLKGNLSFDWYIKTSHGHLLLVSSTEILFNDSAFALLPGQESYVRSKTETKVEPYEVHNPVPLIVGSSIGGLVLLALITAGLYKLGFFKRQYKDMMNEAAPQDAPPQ
Description: Authenticated cells. (FIG. 9D) Lysates from the mouse macrophage cell line RAW264.7 expressing GFP alone or in combination with a FLAG-tagged version of mouse SLAMF7 (FLAG-SLAMF7) were immunoprecipitated with anti-FLAG. They were then probed by immunoblotting with anti-CD11b (Mac-1) or anti-SLAMF7. Total cell lysates were analyzed in parallel. (FIG. 9E) Co-localization of SLAMF7 and CD11b in RAW264.7 cells expressing GFP alone or with FLAG-SLAMF7 assessed by immunofluorescence. Semi-confluent RAW264.7 cells expressing GFP alone (bottom) or in combination with FLAG-SLAMF7 (top) were fixed and stained with antibodies against FLAG, CD11b (Mac-1) or CD18, as detailed in Example 1. Staining was detected by confocal microscopy. Scale bar, 5 μm. […] (FIG. 9F) As in FIG. 9E, except that only RAW264.7 cells expressing FLAG-SLAMF7 were analyzed and that antibodies coupled to different fluorophores were used. […] (FIGS. 9G-A and 9G-B) RAW264.7 derivatives expressing GFP alone or in combination with FLAG-SLAMF7 were analyzed by flow cytometry, using antibodies directed against FLAG and SLAMF7 (dotted lines). […]
Immunoprecipitations, mass spectrometry, immunoblots. […] In brief, immunoprecipitated proteins were digested with trypsin (Promega, Madison, Wis.) and analyzed by LC-MS/MS on a LTQ Orbitrap™ Velos (ThermoFisher Scientific, Bremen, Germany) equipped with a Proxeon Nanoelectrospray™ ion source. […]

Molecule: C[C@@H]1C[C@H]2[C@@H]3CCC4=CC(=O)C=C[C@]4(C)[C@@]3(F)[C@@H](O)C[C@]2(C)[C@@]1(O)C(=O)CO [dexamethasone]
- cells becoming apoptotic (annexin V-positive) (thymocytes): about 70%

B1: mouse CD16 (Fc receptor) (receptor, UniProt P08508 31-261, looked up)
chain: ALPKAVVKLDPPWIQVLKEDMVTLMCEGTHNPGNSSTQWFHNGRSIRSQVQASYTFKATVNDSGEYRCQMEQTRLSDPVDLGVISDWLLLQTPQRVFLEGETITLRCHSWRNKLLNRISFFHNEKSVRYHHYKSNFSIPKANHSHSGDYYCKGSLGSTQHQSKPVTITVQDPATTSSISLVWYHTAFSLVMCLLFAVDTGLYFYVRRNLQTPREYWRKSLSIRKHQAPQDK
notes: whole, on cells; Endogenous protein in macrophage lysates
- binding result [1]: no binding

B2: mouse CD64 (Fc receptor) (receptor, UniProt P26151 25-404, looked up)
chain: EVVNATKAVITLQPPWVSIFQKENVTLWCEGPHLPGDSSTQWFINGTAVQISTPSYSIPEASFQDSGEYRCQIGSSMPSDPVQLQIHNDWLLLQASRRVLTEGEPLALRCHGWKNKLVYNVVFYRNGKSFQFSSDSEVAILKTNLSHSGIYHCSGTGRHRYTSAGVSITVKELFTTPVLRASVSSPFPEGSLVTLNCETNLLLQRPGLQLHFSFYVGSKILEYRNTSSEYHIARAEREDAGFYWCEVATEDSSVLKRSPELELQVLGPQSSAPVWFHILFYLSVGIMFSLNTVLYVKIHRLQREKKYNLEVPLVSEQGKKANSFQQVRSDGVYEEVTATASQTTPKEAPDGPRSSVGDCGPEQPEPLPPSDSTGAQTSQS
notes: as for B1
- binding result [1]: no binding
